Laboratory results taken from the Human Domainome abundance scans (Beltran et al. 2025).
± gives the uncertainty stated by the source.

B1: Neutrophil cytosol factor 2, residues 456 to 514; numbered along this chain, P19878 (parent)
chain: LKKGSQVEALFSYEATQPEDLEFQEGDIILVLSKVNEEWLEGECKGKVGIFPKVFVEDC

Variants of: B1
Experiment: abundance fitness (aPCA) (normalised: wild type 0, dead -1); higher = more abundant; growth selection in yeast, the domain comes from the species named
Conditions: Homo sapiens

Q: With Q17V as the variant, how does the abundance fitness read?
A: -0.643 ± 0.13

Q: With K53E as the variant, how does the abundance fitness read?
A: -0.353 ± 0.24

Q: For V48G, which abundance fitness is on record?
A: -0.387 ± 0.15

Q: For C59T, which abundance fitness is on record?
A: 0.289 ± 0.13

Q: Which abundance fitness does the source give for I50S here?
A: -0.448 ± 0.14

Q: For F23Y, which abundance fitness is on record?
A: -0.517 ± 0.14

Q: Which abundance fitness does the source give for D27S here?
A: -0.666 ± 0.11

Q: For G26L, which abundance fitness is on record?
A: -0.339 ± 0.12

Q: For D58Q, which abundance fitness is on record?
A: -0.079 ± 0.29

Q: Which abundance fitness does the source give for P18Q here?
A: -0.83 ± 0.45

Q: With L30T as the variant, how does the abundance fitness read?
A: 1.05 ± 0.089

Q: With E14F as the variant, how does the abundance fitness read?
A: -0.236 ± 0.11

Q: Which abundance fitness does the source give for G26H here?
A: -0.398 ± 0.27

Q: For P18E, which abundance fitness is on record?
A: -0.48 ± 0.27

Q: For P52R, which abundance fitness is on record?
A: -0.918 ± 0.21

Q: For K53L, which abundance fitness is on record?
A: -0.749 ± 0.2

Q: With K2G as the variant, how does the abundance fitness read?
A: -0.307 ± 0.17

Q: For V31G, which abundance fitness is on record?
A: 0.001 ± 0.071

Q: For E43C, which abundance fitness is on record?
A: -0.685 ± 0.17

Q: For L40S, which abundance fitness is on record?
A: -0.729 ± 0.15

Q: For Y13M, which abundance fitness is on record?
A: 0.207 ± 0.21

Q: Which abundance fitness does the source give for C59P here?
A: 0.078 ± 0.14

Q: For L1S, which abundance fitness is on record?
A: -0.217 ± 0.21

Q: Which abundance fitness does the source give for G46E here?
A: -0.189 ± 0.28

Q: Which abundance fitness does the source give for L21P here?
A: -0.529 ± 0.2

Q: Which abundance fitness does the source give for F51T here?
A: -0.165 ± 0.12

Q: With V35C as the variant, how does the abundance fitness read?
A: -0.475 ± 0.13

Q: With E37C as the variant, how does the abundance fitness read?
A: -0.109 ± 0.15

Q: With L30V as the variant, how does the abundance fitness read?
A: -0.07 ± 0.095

Q: With V54W as the variant, how does the abundance fitness read?
A: -0.438 ± 0.2

Q: Which abundance fitness does the source give for V7S here?
A: -0.287 ± 0.17

Q: With F11M as the variant, how does the abundance fitness read?
A: -0.084 ± 0.24

Q: For V56N, which abundance fitness is on record?
A: -0.439 ± 0.15

Q: With P52T as the variant, how does the abundance fitness read?
A: -0.341 ± 0.14

Q: With S12R as the variant, how does the abundance fitness read?
A: -0.315 ± 0.15

Q: For E37M, which abundance fitness is on record?
A: -0.506 ± 0.22

Q: Which abundance fitness does the source give for I29E here?
A: -0.392 ± 0.22

Q: With E43P as the variant, how does the abundance fitness read?
A: -0.818 ± 0.26

Q: For G49I, which abundance fitness is on record?
A: -0.427 ± 0.11

Q: Which abundance fitness does the source give for D58M here?
A: -0.203 ± 0.29

Q: With K47I as the variant, how does the abundance fitness read?
A: -0.642 ± 0.15

Q: Which abundance fitness does the source give for L30G here?
A: -0.2 ± 0.097

Q: Which abundance fitness does the source give for E14P here?
A: 0.023 ± 0.19

Q: With S5A as the variant, how does the abundance fitness read?
A: 0.353 ± 0.16

Q: With S33Y as the variant, how does the abundance fitness read?
A: -0.55 ± 0.15

Q: With D27A as the variant, how does the abundance fitness read?
A: -0.142 ± 0.14

Q: For T16D, which abundance fitness is on record?
A: -0.428 ± 0.12

Q: For L30Y, which abundance fitness is on record?
A: 0.079 ± 0.094

Q: Which abundance fitness does the source give for F55H here?
A: -0.229 ± 0.19

Q: Which abundance fitness does the source give for F23R here?
A: -0.223 ± 0.12

Q: With T16I as the variant, how does the abundance fitness read?
A: -0.926 ± 0.23

Q: For E37I, which abundance fitness is on record?
A: -0.445 ± 0.17

Q: With Q6M as the variant, how does the abundance fitness read?
A: 0.023 ± 0.15

Q: Which abundance fitness does the source give for D58K here?
A: 0.351 ± 0.26

Q: Which abundance fitness does the source give for K45D here?
A: 0.065 ± 0.12

Q: Which abundance fitness does the source give for S33T here?
A: -0.289 ± 0.18

Q: Which abundance fitness does the source give for Q24D here?
A: 0.235 ± 0.097

Q: With F55S as the variant, how does the abundance fitness read?
A: -0.753 ± 0.16

Q: With W39I as the variant, how does the abundance fitness read?
A: -0.109 ± 0.091

Q: With P18A as the variant, how does the abundance fitness read?
A: -0.284 ± 0.14

Q: With N36A as the variant, how does the abundance fitness read?
A: -0.063 ± 0.14

Q: For G49Y, which abundance fitness is on record?
A: -0.503 ± 0.12

Q: With A15N as the variant, how does the abundance fitness read?
A: -0.853 ± 0.27

Q: With E38H as the variant, how does the abundance fitness read?
A: -0.362 ± 0.17

Q: With F51A as the variant, how does the abundance fitness read?
A: -0.63 ± 0.15

Q: Which abundance fitness does the source give for V31Y here?
A: -0.479 ± 0.13

Q: With C44F as the variant, how does the abundance fitness read?
A: -0.741 ± 0.13

Q: For F51W, which abundance fitness is on record?
A: -0.739 ± 0.32

Q: With F23V as the variant, how does the abundance fitness read?
A: -0.568 ± 0.16

Q: With S12I as the variant, how does the abundance fitness read?
A: -0.069 ± 0.094

Q: With F23C as the variant, how does the abundance fitness read?
A: -0.218 ± 0.11

Q: For E37A, which abundance fitness is on record?
A: -0.42 ± 0.14

Q: Which abundance fitness does the source give for L21M here?
A: -0.509 ± 0.29

Q: With V56R as the variant, how does the abundance fitness read?
A: -0.637 ± 0.16

Q: For G46W, which abundance fitness is on record?
A: -0.346 ± 0.21

Q: Which abundance fitness does the source give for D27I here?
A: -0.179 ± 0.1

Q: With K3I as the variant, how does the abundance fitness read?
A: 0.207 ± 0.19

Q: For E43W, which abundance fitness is on record?
A: -0.435 ± 0.32

Q: Which abundance fitness does the source give for E43L here?
A: -0.487 ± 0.15

Q: With G4I as the variant, how does the abundance fitness read?
A: 0.575 ± 0.31

Q: For K34N, which abundance fitness is on record?
A: -0.287 ± 0.13

Q: Which abundance fitness does the source give for E8S here?
A: 0.048 ± 0.12

Q: With V54C as the variant, how does the abundance fitness read?
A: 0.378 ± 0.078

Q: Which abundance fitness does the source give for V35K here?
A: -0.045 ± 0.23
